These results are taken from article PMC6597557, “A split fluorescent reporter with rapid and reversible complementation” (Nature Communications, 2019).

What all share (details): both partners purified
Experiment [1] deals with T1, NFAST (fragment 1–114 of FAST).
T1 construct: N-terminal fragment (residues 1-114) of the engineered fluorogenic reporter FAST, split between Ser 114 and Gly 115; numbers count on: FAST; Cloned in pET28a with NheI and XhoI; Surmise: the His tag is the N-terminal one of the vector; no cleavage is told; also called recombinantly purified NFAST; source: E. coli Rosetta (DE3) pLysS, purified (Ni-NTA, PD-10 desalting)
T1 chain: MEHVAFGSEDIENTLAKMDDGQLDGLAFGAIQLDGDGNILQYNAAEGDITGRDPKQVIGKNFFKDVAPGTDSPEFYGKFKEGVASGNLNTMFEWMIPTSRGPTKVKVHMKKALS
Kind of experiment: other fluorescence titration; synthetic CFASTn peptides (n = 8–11) and recombinant purified NFAST in the presence of fluorogen (10 µM HMBR; also HBR-3,5DOM); Spark 10M plate reader; one-site-specific binding fit; apparent.

Experiment [2] concerns the target T2, CFAST11 (fragment 115-125 of FAST).
T2 construct: C-terminal fragment 115-125 of the engineered protein FAST; source: synthetic peptide, bought: Clinisciences, 98% purity
T2 peptide: Ac-GDSYWVFVKRV-NH2
Kind of experiment: other fluorescence titration; NFAST titrated onto 100 nM CFASTn in the presence of 10 µM HMBR; pH 7.4 phosphate buffered saline, 25 °C; excitation 480 nm, emission 540 nm; plate reader; one-site-specific binding fit; apparent.

The target of experiment [3] is T3, CFAST10.
T3 construct: CFAST11 without its last C-terminal residue; source: synthetic peptide, bought: Clinisciences, 98% purity
T3 peptide: Ac-GDSYWVFVKR-NH2
The experiment is described as above.

Experiment [4] has as its target T4, CFAST9.
T4 construct: CFAST11 without its last two C-terminal residues; source: synthetic peptide, bought: Clinisciences, 98% purity
T4 peptide: Ac-GDSYWVFVK-NH2
The experiment is described as above.

For the next experiment, the target named is T5, CFAST8.
T5 construct: CFAST11 without its last three C-terminal residues; source: synthetic peptide, bought: Clinisciences, 98% purity
T5 peptide: Ac-GDSYWVFV-NH2
The description is as above.

Experiment [5] has as its target T2, CFAST11 (fragment 115-125 of FAST). The experiment is described as follows: other fluorescence titration; NFAST titrated onto 100 nM CFASTn in the presence of 10 µM HBR-3,5DOM; pH 7.4 phosphate buffered saline, 25 °C; excitation 520 nm, emission 600 nm; plate reader; one-site-specific binding fit; apparent.
The target of experiment [6] is T3, CFAST10. The description is as above.
In experiment [7] the target is T4, CFAST9. Described as above.

B1: CFAST10, synthetic peptide (peptide)
peptide: Ac-GDSYWVFVKR-NH2
notes: CFAST11 without its last C-terminal residue; numbers count on: FAST; source: synthetic peptide, bought: Clinisciences (98% purity)
As to B1, the binding result in experiment [1] is “binds”.

B2: NFAST (fragment 1-114 of FAST, Fluorescence-Activating and absorption-Shifting Tag) (domain or fragment)
chain: MEHVAFGSEDIENTLAKMDDGQLDGLAFGAIQLDGDGNILQYNAAEGDITGRDPKQVIGKNFFKDVAPGTDSPEFYGKFKEGVASGNLNTMFEWMIPTSRGPTKVKVHMKKALS
notes: Cloned into pET28a by NheI and XhoI; also called Histag-NFAST; pAG209; source: E. coli Rosetta (DE3) pLysS, purified (Ni-NTA, PD-10 desalting into PBS)
Consider B2, for which the Kd worked out at 0.21 ± 0.05 µM in experiment [2]; 0.95 ± 0.08 µM with CFAST10 [3]; 5.7 ± 0.6 µM with CFAST9 [4]; 21 ± 4 µM in the experiment with CFAST8; 1.4 ± 0.2 µM in experiment [5]; 6.2 ± 0.5 µM in the experiment with CFAST10 [6]. Also, the Kd in the experiment with CFAST9 [7] was determined as 25 ± 1 µM.

B3: CFAST11 (fragment 115–125 of FAST), synthetic peptide (peptide)
peptide: Ac-GDSYWVFVKRV-NH2
notes: C-terminal fragment (residues 115-125) of the engineered reporter FAST; numbers count on: FAST; source: synthetic peptide, bought: Clinisciences (98% purity)
With B3, the binding result in experiment [1] is on record as “binds”.
